According to paper PMC8069557:

Biological target: C-terminal extension of Bacillus cereus hemolysin II (HlyIICTD) (Bacillus cereus)
Assay: not stated; HlyIICTD in the presence of 4M urea

C-terminal extension of Bacillus cereus hemolysin II (HlyIICTD) (domain or fragment)
stoichiometry N: 3
